One assay concerns Lol p V reactive T Cells. As to the kind of experiment: T cell proliferation (tritiated thymidine) of Lol p V-primed T cell lines from grass-allergic patients. The format is cell-based, human. The conditions noted are these: one allergic patient; results not shown. The text has this:
As discussed in Example 2, human T cell stimulating activity can be tested by culturing T cells obtained from an individual sensitive to Lol p V allergen, (i.e., an individual who has an IgE mediated immune response to Lol p V allergen) with a peptide derived from the allergen and determining whether proliferation of T cells occurs in response to the peptide as measured, e.g., by cellular uptake of tritiated thymidine. Stimulation indices for responses by T cells to peptides can be calculated as the maximum CPM in response to a peptide divided by the control CPM. A stimulation index (S.I.) equal to or greater than two times the background level is considered “positive”. […]
In addition, preferred peptides have a positivity index (P.I.) of at least about 60, more preferably about 100, more preferably at least about 200 and most preferably at least about 300. The positivity index for a peptide is determined by multiplying the mean T cell stimulation index by the percent of individuals, in a population of individuals sensitive to ryegrass pollen (e.g., preferably a population of at least 15 individuals, more preferably a population of at least 30 individuals or more), who have a T cell stimulation index to such peptide of at least 2.0. […]
This amount of priming antigen was determined to be optimal for the activation of T cells from most grass-allergic patients. […]

The test system of assay [1] is human IgE. As to the kind of experiment: Direct ELISA of human IgE binding to coated antigen. The protocol:
(§1) To examine the importance of Lol p V, both direct and competition ELISA assays were performed. In the direct ELISA, 100 μl of 10 μg/ml of antigen in Phosphate Buffered Saline, pH 7.4 (PBS) was used to coat Immulon II (Dynatech, Chantilly, Va.) 96 well plates for 4 hours at room temperature (RT) or overnight (O/N) at 4° C. In between each step the plates were washed 3× with PBS-T. The excess coating antigen(s) was removed and the wells blocked with 300 μl/well 0.5% gelatin +1 mg/ml PVP in PBS for 1 hour at RT. Serially diluted patient plasma or the diluent PBS+0.05% Tween^−20 was incubated in at 100 μl/well in duplicate wells overnight at 4° C. […] Plates were read on a MR7000 plate reader (Dynatech, Chantilly, Va.) with a 450 nm filter. The absorbance levels of duplicate wells were averaged. The results were graphed as absorbance vs. dilution. […] The results are plotted as the absorbance vs. the log of the concentration of competing antigen.
For the direct ELISA, wells were coated with either soluble pollen extract (SPE) of ryegrass pollen or rLol p V (purified native Lol p V may have a small amount of Lol p I; use of recombinant material assures that the IgE binding is only to Lol p V) and human IgE antibody binding to these antigens was analyzed. […]

The subject of assay [2] is human basophil mediator release. As to the kind of experiment: Histamine release assay on whole blood of a ryegrass allergic individual. The format is cell-based. The conditions noted are these: one ryegrass allergic individual; whole heparinized blood; 37° C., 30 minutes; FIG. 12. The protocol:
A histamine release assay was performed on one ryegrass allergic individual, using Lol p SPE and rLol p V as the added antigens. This assay is a measure of IgE reactivity through human basophil mediator release, and it is based on the detection of an acylated derivative of histamine using a specific monoclonal antibody (Morel, A. M. and Delaage, M. A.; 1988, J. Allergy Clin. Immunol. 82: 646–654). The reagents for this radioimmunoassay are sold as a kit by Amac Inc. (Westbrook, Me.). Whole heparinized blood drawn from a grass allergic individual and then […] aliquots were mixed with an equal amount of the grass antigens SPE and rLol p V at various concentrations or the diluent, PACM buffer (25 mM PIPES, 100 mM NaCl, 5 mM KCL, 4 mM CaCl2, 1 mM MgCl2, 0.003% HSA, pH7.3) in 1.5 ml polypropylene. The release reactions were carried out at 37° C. for 30 minutes. After this incubation the samples were centrifuged at 1500 RPM for 3 minutes and the supernatants removed. For the total histamine release, 0.1 ml of blood was added to 0.9 ml of PACM buffer, vortexed, and then boiled for 3 minutes. The samples were spun at 13000 RPM and the supernatant removed for analysis. Duplicate samples were used to measure total release. All of the supernatants are diluted 1:4 in acylation buffer and the remainder of the assay is performed according to the manufacturer's instructions.

The subject of assay [3] is human IgE. As to the kind of experiment: Competition ELISA for IgE binding to ryegrass pollen SPE. The conditions noted are these: IgE source PHP-A or individual patient plasma; FIGS. 10 and 11. The protocol:
as §1
In the competition assay, ELISA wells were coated with ryegrass pollen SPE and then allergic patient IgE binding was measured in the presence of competing ryegrass pollen SPE, purified native Lol p V, or rLol p V. The source of allergic IgE in this assay was PHP-A (FIG. 10) or individual patient plasma (FIG. 11). […]

The test system of a further assay is specific IgE. The following applies: immunoblotting; WO 93/04174, page 65; cited from earlier work.

B1: rLol p V: bacterially expressed recombinant Lol p V encoded by clone 12R, with His6 sequence (protein)
chain: MHHHHHHMAVQKYTVALFLAVALVAGPAASYAADAGYTPAAAATPATPAATPAAAGGKATTDEQKLLEDVNAGFKAAVAAAANAPPADKFKIFEAAFSESSKGLLATSAAKAPGLIPKLDTAYDVAYKAAEGATPEAKYDAFVTALTEALRVIAGALEVHAVKPATEEVPAAKIPTGELQIVDKIDAAFKIAATAANAAPTNDKFTVFESAFNKALNECTGGAYETYKFIPSLEAAVKQAYAATVAAAPEVKYAVFEAALTKAITAMTQAQKAGKPAAAAATGAATVATGAATAAAGAATAAAGGYKA
As for B1, the “T cell proliferative response of one patient” value in the assay on Lol p V reactive T Cells is given as “responds well”. For the same molecule, in the assay with human IgE [1] (IgE source PHP-A, PHP-B or four individual patients, FIGS. 6-9), the “IgE binding in direct ELISA” value is on record as “high IgE binding”. In addition, the “IgE binding in direct ELISA (reactivity to Lol p V peptides)” value with human IgE [1] (IgE source PHP-B, preliminary assay, FIG. 13a and 13b) is “very high IgE binding”. In assay [2], the histamine release entry is given as “strong histamine release over a wide concentration range”.

B2: Lol p V: major ryegrass (Lolium perenne) pollen protein allergen (protein)
chain: B1 chain
As to B2, the “competition for IgE binding to ryegrass pollen SPE” value with human IgE [3] is given as “significant portion of IgE against Lol p SPE is specific for Lol p V”. The “ryegrass pollen sensitive patients possessing specific IgE antibody that bound” value in the assay with specific IgE is 80%.

B3: purified native Lol p V: Lol p V allergens affinity-purified from ryegrass pollen on mAb 1B9 column (protein)
chain: ADAGYTPAAAATPATPAATPAAAGGKATTDEQKLLEDVNAGFKAAVAAAANAPPADKFKIFEAAFSESSKGLLATSAAKAPGLIPKLDTAYDVAYKAAEGATPEAKYDAFVTALTEALRVIAGALEVHAVKPATEEVPAAKIPTGELQIVDKIDAAFKIAATAANAAPTNDKFTVFESAFNKALNECTGGAYETYKFIPSLEAAVKQAYAATVAAAPEVKYAVFEAALTKAITAMTQAQKAGKPAAAAATGAATVATGAATAAAGAATAAAGGYKA
modifications: non-natural residues
Regarding B3, the “T cell proliferative response of one patient” value in the assay on Lol p V reactive T Cells is on record as “responds well”.

Values taken from patent US7112333B1, “T cell epitopes of ryegrass pollen allergen” (Heska Corporation, priority 1994, dated 2006).
